Molecular target: GltPh-K55C-A364C cross-linked with mercury (Pyrococcus horikoshii) (UniProt O59010)
Test: crystal structure; GltPh^in crystals grown at 4°C in 14–20% PEG 400, 0.1 M potassium citrate pH 5.0–6.0, with lipids and n-decyl-α-D-maltopyranoside; soaked in Tl+ or alkali-free solutions; trimer with three protomers

stoichiometry N: 3
Substance: GltPh-K55C-A364C cross-linked with mercury (from UniProt O59010 1-425) (natural protein)

Source: article PMC4051121
